Test results from the supplement of paper PMC9170038.

Tested on: MS2 coat protein
Assay: apparent KD of MS2 coat protein; designed switch direction (-1 OFF switch, 1 ON switch): -1; higher = weaker reporter binding
Method in brief: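 For each design, the apparent KD is the median over clusters of curves fitted to normalised cluster fluorescence. Clusters held RNA switches with common flanks, transcribed on Illumina chips by stalled E. coli RNA polymerase. These were titrated with SNAP-549-labelled MS2 coat protein, doubling from 0.7 or 1.5 nM to 3 µM, without input, with 200 uM small-molecule ligand, or with an oligonucleotide input.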

[1] = input ligand: microRNA oligo, concentration not stated
[2] = Eterna round: R95, input ligand: microRNA oligo, concentration not stated
[3] = Eterna round: R95, input ligand: FMN 200 uM
[4] = Eterna round: R95, input ligand: none

| Sequence | apparent KD of MS2 coat protein (input ligand: FMN 200 uM) | apparent KD of MS2 coat protein [1] | apparent KD of MS2 coat protein (input ligand: none) | apparent KD of MS2 coat protein [2] | apparent KD of MS2 coat protein [3] | apparent KD of MS2 coat protein [4] |
| --- | --- | --- | --- | --- | --- | --- |
| CGUGCGUAUGUGAGGAUAUGCUGGUCCUUGGCUCGGCAGAAGGCACAUGAGGAUCACCCAUGUGGUGUCGUACU [salish99_Bmod_ex4_069] (Eterna round: R96, puzzle: Brourd's mod of Exclusion 4) | 291 nM | 61.1 nM | 67.5 nM |  |  |  |
| CGUGCGUAUGUGAGGAUAUGCUGGUCCUUGGCUCGGCAGAAGGCACAUGAGGAUCACCCAUGUGGUGUCGUACU [salish99_Bmod_ex4_069] (puzzle: Brourd's mod of Exclusion 4) |  |  |  | 50.2 nM |  |  |
| CGUGGACAUAACAAGCUUUACAUGAGGAUCACCCAUGUGAUCAUGCUCGUCUUAUGGUCCACGAAUUAAUUAAUUAA [Stov1/6-C1] (Eterna round: R97, puzzle: Sensor, turn-off variant 1) | 19.5 nM |  | 19.9 nM |  |  |  |
| CGUGUACGAGGAUAUAGAUUAGGUGACAUGAGGAUCACCCAUGUGAUCAAUCUAUUUGGUUUAGAAGGUGUACAUG [JR_Ex5_Sub052] (Eterna round: R97, puzzle: Exclusion 5) | 15 nM |  | 14 nM |  |  |  |
| CGUUCGCGAGGAUAUGCAUUCGAGUCCACUACGUGUCUGGGACUUGAGGAUCACCCAAGUAGAAGGCGCCUAAA [salish99_ex2_r4_652] (Eterna round: R97, puzzle: Exclusion 2) | 514 nM |  | 577 nM |  |  |  |
| CGUUCGCGAGGAUAUGCAUUCGAGUCCAUUACGUGUCUGGGACUUGAGGAUCACCCAAGUAGAAGGCGCCUCAC [salish99_ex2_r4_647] (Eterna round: R97, puzzle: Exclusion 2) | 131 nM |  | 153 nM |  |  |  |
| CGUUGGCGAGGAUAUACAUGAGGAUCACCCAUGUGAGAGAAAAAAGUGAGGAAGAAAAGUAGAAGGCGCUGACG [salish99_ex3_r3_050] (puzzle: Exclusion 3) |  |  |  | 101 nM | 350 nM | 34.9 nM |
| CGUUGGCGAGGAUAUACAUGAGGAUCACCCAUGUGAGAGAAAAAAGUGAGGAAGAAAAGUAGAAGGCGCUGACU [salish99_ex3_r3_051] (puzzle: Exclusion 3) |  |  |  | 31.7 nM | 101 nM | 54.3 nM |
| CUAAAAGUCGAGGAUAUGCACCGUUUCGCUGACGCAGAAGGCGACACAUGAGGAUCACCCAUGUCGGUACGCGA [salish99_ex6_r004_456] (Eterna round: R97, puzzle: Exclusion 6) | 27.7 nM |  | 23.5 nM |  |  |  |
| CUAACAUGCUGGUGAUCAUACAUGAGGAUCACCCAUGUAACAAGCUUUUUGCUCGUCUUAUAAGAUCACCAGCAUGU [Stov1/9-A4] (Eterna round: R97, puzzle: Sensor, turn-off variant 1) | 16.2 nM |  | 15.5 nM |  |  |  |
| CUAACAUGCUGGUGAUCAUACAUGAGGAUCACCCAUGUAACAAGCUUUUUGCUCGUCUUAUAAUUUAAGAUCACCAG [Stov1/7-A4] (Eterna round: R97, puzzle: Sensor, turn-off variant 1) | 17 nM |  | 14.1 nM |  |  |  |
| CUAAGUUGGUAAGGAUAUCCUACAUUAUUCUGACCCGUGCAAGCUACAUGAGGAUCACCCAUGUGGGAGAAGGUGCGUUAAAGU [Design 4] (Eterna round: R96, puzzle: Exclusion NG 2) | 23.7 nM | 21.3 nM | 24 nM |  |  |  |
| CUAGAUCUUCGGAUCUAGGACAUGAGGAUCACCCAUGUCACGAGCAGAUCCUCAUGCAAGCUUUUUGCUCGUCUUAU [Sensor v3 - Turn-off variant 1 - 36] (puzzle: Sensor v3, turn-off variant 1) |  |  |  | 17.4 nM | 133 nM | 70.1 nM |
| CUAGCGAAUGUAGGAUAUCGGACUGUUUCAGUCUGAGAAGGACAUGAGGAUCACCCAUGUGUAGCUACGUGAGUAGCACGCUAG [JL ENG1 3.89] (Eterna round: R96, puzzle: Exclusion NG 1) | 58.7 nM | 16.1 nM | 27.5 nM |  |  |  |
| CUAGCGAUUGUAGGAUAUCGGACUGUUUCAGUCUGAGAAGGACAUGAGGAUCACCCAUGUGAACCAACGUGAGUUGGACGCUAG [JL ENG1 3.82] (Eterna round: R96, puzzle: Exclusion NG 1) | 51.1 nM | 12.5 nM | 19.4 nM |  |  |  |
| CUAGCGUAUGUAGGAUAUCGGACUGUUUCAGUCUGAGAAGGACAUGAGGAUCACCCAUGUAUUGCUACGUGAGUAGCUCGCUAG [JL ENG1 3.93] (Eterna round: R96, puzzle: Exclusion NG 1) | 30.1 nM | 16.8 nM | 19.6 nM |  |  |  |
| CUAUCGUGAGGAUAUGACCCAUAAGCACUAAAGUAGGUGAGUCAGAAGGCACAUGAGGAUCACCCAUGUGGACC [Eternabot (L1) Solution 47] (Eterna round: R97, puzzle: Exclusion 4) | 59.8 nM |  | 21.9 nM |  |  |  |

| Sequence | apparent KD of MS2 coat protein (input ligand: FMN 200 uM) | apparent KD of MS2 coat protein [1] | apparent KD of MS2 coat protein (input ligand: none) | apparent KD of MS2 coat protein [2] | apparent KD of MS2 coat protein [3] | apparent KD of MS2 coat protein [4] |
| --- | --- | --- | --- | --- | --- | --- |
| CUAUGAGCUGAGGAUAUCUGCAGGUUGUGCCUGGGAGAAGGCAGCACAUGAGGAUCACCCAUGUGACCGAAAUA [Mod Ex6 A.17 by Nando] (Eterna round: R97, puzzle: Exclusion 6) | 195 nM |  | 50.8 nM |  |  |  |
| CUAUUCCGAGGAUAUACAUGAGGAUCACCCAUGUCGGGCCUCAGCGUUUAGCGCGUAAGUAGAAGGUGGGUUUC [JL Riri mod 7] (puzzle: Exclusion 3) |  |  |  | 27.4 nM |  |  |
| CUCAGACAUGAGGAUCACCCAUGUGAGGAUAUGAUGCGAUCGUCGAAAGACGAUAGCAUCAGAAGGUACAAAUG [Fiskers Ex 1 - 20] (puzzle: Exclusion 1) |  |  |  | 55.3 nM |  |  |
| CUCAGGUCAGGAUAUGUAGACCGGUGCAGACACUACGGGAAACAGAAGGGACAUGAGGAUCACCCAUGUUCGUA [EX4 B.11] (Eterna round: R97, puzzle: Exclusion 4) | 45 nM |  | 30.4 nM |  |  |  |
| CUCAUGCCUGAGGAUAUGCUGUACAAAAGUACUGCAGAAGGUAGAACAUGAGGAUCACCCAUGUGGCGAAAGCC [Omei Ex G3] (Eterna round: R97, puzzle: Exclusion 6) | 171 nM |  | 45.8 nM |  |  |  |
| CUCAUGUAAGGAUAUUGGCACAUGGAACCUGCUGGUUCUGAUAAGAAGGUACAUGAGGAUCACCCAUGUCCUCG [Eternabot (L2) Solution 89] (Eterna round: R97, puzzle: Exclusion 4) | 48.7 nM |  | 47.5 nM |  |  |  |
| CUCCAUACAGGAUAUACAGGCGGUGGAGCCGUAUGAUCAACACAUGAGGAUCACCCAUGUAGAAGGGUGUGUAC [Eternabot (L2) Solution 25] (Eterna round: R97, puzzle: Exclusion 2) | 436 nM |  | 642 nM |  |  |  |
| CUCCCUUCAGGAUAUACAUGAGGAUCACCCAUGUGUUCCAGCUAGGAAACUAGCAAAUGUAGAAGGGAAGGGAG [Mat - Exclusion 3 - JL Mod - D4] (Eterna round: R97, puzzle: Exclusion 3) | 183 nM |  | 90 nM |  |  |  |
| CUCCGACAUGAGGAUCACCCAUGUGAGGAUAUGUAGCCCAGUUGGACAACUCGAGGUAGCAGAAGGCACAUGCC [Eternabot (L2) Solution 64] (Eterna round: R97, puzzle: Exclusion 1) | 57.6 nM |  | 27 nM |  |  |  |
| CUCCGCGCUGUCAGGAUAUCCAGGGCCUACCGGCCGGAGAAGGGACAUGAGGAUCACCCAUGUUCGGGUUAGCA [Eszaquus] (puzzle: Brourd's mod of Exclusion 4) |  |  |  | 13.3 nM |  |  |
| CUCCGGCGUGUAGGAUAUGGAUCCGAUUAGGAUCCAGAAGGACAUGAGGAUCACCCAUGUACAUGUAAACAGUCAUCACCGGGC [salish99_ExNG1_r04_205] (Eterna round: R96, puzzle: Exclusion NG 1) | 131 nM | 18.2 nM | 21.4 nM |  |  |  |
| CUCCGGCGUGUAGGAUAUGGAUCCGAUUAGGAUCCAGAAGGACAUGAGGAUCACCCAUGUACAUGUCGUCGGUCGUCACCGGGC [salish99_ExNG1_r04_210] (Eterna round: R96, puzzle: Exclusion NG 1) | 52.7 nM | 22.2 nM | 32.2 nM |  |  |  |
| CUCCUCAUGACGCCUAAACACAUGAGGAUCACCCAUGUACAGGCUUUUUGUCGUCUUAUAAUAAAACCGAGGAGGCG [Inletice] (puzzle: Sensor v3, turn-off variant 1) |  |  |  | 65.9 nM | 14.6 nM | 15 nM |
| CUCCUCAUGACGCCUAAAGACAUGAGGAUCACCCAUGUACAGGCUUUUUGUCGUCUUAUAAUAAAACCGAGGAUGCG [Edmate] (puzzle: Sensor v3, turn-off variant 1) |  |  |  | 45.9 nM | 19.2 nM | 20.1 nM |
| CUCCUCAUGGCGCCUAAACACAUGAGGAUCACCCAUGUGCAGGCUUUUUGCCGUCUUAUAAUAAAACCGAGGAUGCG [Vegequ] (puzzle: Sensor v3, turn-off variant 1) |  |  |  | 77.8 nM | 16.9 nM | 16.2 nM |
| CUCGGACAUGAGGAUCACCCAUGUGAGGAUAUGGCGCUAUCGUCAUUAGACGAUUGCGCCAGAAGGCACAAAUG [LRO-Excl1-27] (puzzle: Exclusion 1) |  |  |  | 80.7 nM |  |  |
| CUCGGACAUGAGGAUCACCCAUGUGAGGAUAUGGUGCUAUCGUCAUUAGACGAUUGCGUUAGAAGGCACAUUUU [LRO-Excl1-29] (puzzle: Exclusion 1) |  |  |  | 29.5 nM |  |  |
